Experimental findings from patent publication US11938195B2, “Upconversion nanoparticle peptide conjugates” (BP InnoMed Limited, priority 2021, dated 2024) are described below.

A short description of data set [1]: Peptide release from nanoprobes under various time intervals (UV-vis absorbance). The data set is classed as physicochemical. Particulars: 0.5 mg/mL. The source says:
The stability and capability of cleavage of the pH linker were also studied. […] More importantly, TEM images of UCNP-P5 at different pH buffers were observed and investigated in FIG. 1, providing direct evidence on pH-responsive peptide release from UCNP.

Data set [2] can be described thus: Peptide release from nanoprobes under various pH buffers (UV-vis absorbance). It counts as physicochemical. Conditions: 24 h in buffer, 0.5 mg/mL. The source says: The stability and capability of cleavage of the pH linker were also studied. […] More importantly, TEM images of UCNP-P5 at different pH buffers were observed and investigated in FIG. 1, providing direct evidence on pH-responsive peptide release from UCNP. […]

For data set [3], the system named is EBV-positive C666 cells. Kind of data set: Two-photon confocal imaging, C666. It counts as cell-based. Particulars: mainly from the nuclei, 24 h incubation. The procedure: After the study of cellular uptake, fluorescent confocal microscopy was used to study the sub-cellular localization with the same set of EBV-/LMP1-positive and -negative cell lines. All these cell lines were treated with as-prepared samples for different time intervals of 1 h, 3 h, 6 h, 12 h and 24 h. Fluorescence signals in the cells were imaged under 980 nm excitation.
The cells were then co-stained with 0.05 mM nuclear dye DRAQ5 for 0.5 h for confocal imaging with a Leica SP8 confocal microscope equipped with a coherent femtosecond laser (690-1050 nm), argon laser (432 nm, 457 nm and 488 nm), He—Ne laser (632 nm), UV lamp. A stage-top cell culture chamber was also used to maintain the atmospheric conditions of 2-7% CO2 and a temperature of 37° C.

Another data set concerns C666 derived xenografts. Kind of data set: In vivo suppression assay, C666 xenograft. The source says: To determine the antitumor efficacy of the new nanoprobes in vivo, their therapeutic effects were investigated in C666 and HeLa derived xenografts in BALB/c nude mice. The mice were randomly divided into five groups: (1) control (PBS), (2) UCNP, (3) UCNP-P5, (4) UCNP-P6, (5) UCNP-P7. In order to recapitulate the clinical setting of drug delivery, intravenous injection (via a tail vein) was used to deliver these agents to the immunocompromised animal.
In vivo suppression assays: EBV-positive C666 and EBV-negative HeLa cells were suspended in 200 μL of serum-free RMPI 1640 and DMEM respectively. Female BALB/c nude mice (6-8 weeks) which obtained from HKU were then injected with the cells in the right flank. Intravenous injections were performed when the average tumor volumes reached ˜200 mm^3. 0.25 mg/tumor dose of UCNP and UCNP-Pn [n=5, 6 and 7 (SEQ ID NO: 5, 6, 7)] in […] PBS buffer were injected through tail vein of mice using a 24-gauge syringe. Mice injected with the same volume of PBS buffer served as control. The body weight and tumor volumes of the mice were measured three times per week; in which the latter is calculated by (L×W^2)/2, where L and W are the longer and shorter tumor dimensions respectively. Intravenous injection at the tail vein were performed twice a week and the mice were sacrificed after 33-day experimental period; the tumors were extracted and weighed. The treatment groups are unknown to the investigators for the experimental and data analysis processes. The animal experiments conducted were approved by the Department of Health of the HKSAR Government. All animal procedures are within the Guidelines for Care and Use of Laboratory Animals of HKBU and approved by the Animal Ethics Committee of HKBU.
Hematoxylin and eosin (H&E) staining: In general, the transplanted C666 and HeLa derived tumor tissues were collected and fixed with formalin, followed by embedding in paraffin. The histologic sections were then stained with hematoxylin and eosin. Other major organ tissues (heart, liver, spleen, lung, kidney, brain) were conducted in the same procedures.

In data set [4] the test system is EBV-positive C666 cells. As to the kind of experiment: MTT cytotoxicity assay, C666 cells. Particulars: 24 h. The procedure:
The inhibitory effects of the novel nanoprobes on both EBV-infected cancer cells and non-EBV-infected cancer cells were investigated by MTT assays to test the cell viability. The cytotoxic assays were performed in EBV-positive C666 and NPC43 cells, LMP1-positive LCL3 and Raji cells, and the LMP1-positive and -negative HK1 cell pair. HK1, MRC-5 and HeLa cell lines are EBV-negative and they serve as negative controls. […] In addition, UCNP-P4, EBNA1-specific peptide coated UCNPs was included as control group, so the ability of inhibiting EBV-related cancer cells can be directly compared with UCNP-Pn [n=5, 6 and 7 (SEQ ID NO: 5, 6, 7)].
In vitro cytotoxic assays: The cytotoxicity of our nanoprobes was determined by MTT reduction assay. The cells (3×10^3 per well) were seeded onto 96-well plates and incubated overnight, followed by treatment with Pn [n=5, 6 and 7 (SEQ ID NO: 5, 6, 7)], UCNP, UCNP-Pn [n=5, 6 and 7 (SEQ ID NO: 5, 6, 7)] and UCNP-P4 individually at 37° C., 5% CO2 for 24 h in dark. The cell monolayers were rinsed with PBS and 50 μL of MTT, 3-(4,5-dimethylthiazol-2-yl)-2,5-diphenyltetrazolium bromide solution (0.5 mg mL^−1) was added per well and the cells were further incubated for 3 h at 37° C. The solution was subsequently discarded, and the formazan crystals were dissolved in 100 μL of DMSO per well under shaking. The absorptions of the formazan crystal solutions at 540 nm and 690 nm were measured using a dual-wavelength Labsystem Multiskan microplate reader (Merck Eurolab).
Background: Tetrazolium dyes change colour on reduction, which living cells bring about.

Data set [5] concerns p65. As to the kind of experiment: Western blot of p65 (NF-κB) in LCL3 cells. The data set is classed as cell-based. The source says: (§1) NF-κB signaling pathway is critical for the survival of EBV-infected tumor cells. Here we investigated if our nanoprobes could affect this oncogenic pathway. EBV-positive LCL3 and C666 cells were used as models, EBV-negative HK1 cells were used as control and Western blot was used to analyze the protein expression of p65, a major transcription factor in the NF-κB family. […] GAPDH and Histone are regarded as internal standards in cytosolic and nuclear fractions, respectively. […] This is consistent with the cellular uptake results.
(§2) Western blotting: EBV-positive C666, LCL3 and EBV-negative HK1 cell pellets were treated with phosphatase and protease inhibitors at 0-4° C. for 30 min. The total protein concentrations were calculated by protein absorbance. The protein was resolved by sodium dodecyl sulfate-polyacrylamide gel electrophoresis (SDS-PAGE) and transferred to cellulose filter membranes. The membranes were blocked with 3% BSA in Tris-buffered saline in 0.1% Tween 20 (TBST) for 1 h with gentle shaking and subsequently incubated with primary antibodies (1:1000) in 3% BSA in TBST at 4° C. for overnight. After rinsing with TBST buffer three times, the blots were then incubated with corresponding secondary anti-rabbit antibody (1:6000) for 1 h. After that, the blots were rinsed again with 3% BSA in TBST for 1 h shaking at room temperature. Lastly, the density of bands was determined by image analysis system after washing with TBST buffer three times.
For orientation: Immunoblotting shows a protein as a band on a membrane.

The test system of data set [6] is p65. Kind of data set: Western blot of p65 (NF-κB) in C666 cells. It counts as cell-based.
Excerpt: as §1, §2

Where a SMILES comes first, the peptide text is derived from it. Where no end group is shown, it is not given here. [ ]: non-standard residue; d: D form. Ahx = NCCCCCC(=O)O

Turning to “UCNP-P7: UCNP is NaGdF4:Yb^3+, Er^3+@NaGdF4 and the plurality of polypeptides is Ahx-FWLYGGRrRKGGYFMVF (SEQ ID NO: 7) ([Ahx]FWLYGGR[dR]RKGGYFMVF; also: UCNP conjugate)”, the Peptide release rate in data set [1] (1 h) was 0%; in data set [1] (3 h) it was 0%; in data set [1] (6 h), 0.2%; in data set [1] (12 h), 0.7%; in data set [1] (24 h), 1.0%; in data set [1] (3 day) it was 1.6%. In addition, the Peptide release rate in data set [1] (7 day) stood at 2.6%; in data set [2] (pH 5.0), 81.2%; in data set [2] (pH 5.5), 58.5%; in data set [2] (pH 6.0), 48.2%; in data set [2] (pH 6.5), 36.1%; in data set [2] (pH 7.0), 7.4%. Besides, the Peptide release rate in data set [2] (pH 7.4) was determined as 0%. Also, the “Responsive emission enhancement (lambda scan)” value with EBV-positive C666 cells [3] was “two-fold”. Further, in the data set on C666 derived xenografts (12.5 mg/kg, intravenous (tail vein), twice a week, 33 days), the “Effect on average tumor size” value is reported as “no obvious effect on the tumor size”. Further, the Body weight result in the data set on C666 derived xenografts (C666 tumor-bearing mice, 33-day experimental period) is recorded as “slight reduction of body weight”.

On to `CSCC[C@H](NC(=O)[C@H](Cc1ccccc1)NC(=O)[C@H](Cc1ccc(O)cc1)NC(=O)CCCCCN)C(=O)N[C@H](C(=O)N[C@@H](Cc1ccccc1)C(=O)NCC(=O)NCC(=O)N[C@@H](CCCNC(=N)N)C(=O)N[C@H](CCCNC(=N)N)C(=O)N[C@@H](CCCNC(=N)N)C(=O)N[C@@H](CCCCN)C(=O)NCC(=O)NCC(=O)N[C@@H](Cc1ccccc1)C(=O)N[C@@H](Cc1c[nH]c2ccccc12)C(=O)N[C@@H](CC(C)C)C(=O)N[C@@H](Cc1ccc(O)cc1)C(=O)O)C(C)C` [P5, -Ahx-YFMVFGGRrRKGGFWLY (SEQ ID NO:5)] (H-[Ahx]YFMVFGGR[dR]RKGGFWLY-OH; C-terminus assumed), for which the “Cytotoxicity of free peptides (MTT cell viability)” value (“Cytotoxicity of free peptides” for short) with EBV-positive C666 cells [4] is “capable of selectively targeting and killing EBV-infected cells”. For the same compound, the “Decreased p65 expression, nuclear fraction” value with p65 [5] came out at 86%; with p65 [6], 89%.

In the case of “NaGdF4:Yb^3+, Er^3+@NaGdF4 [UCNP, reference compound]”, the “Tumor uptake (ICP-MS biodistribution)” value in the data set on C666 derived xenografts (mouse, in vivo) was “nearly undetectable in the tumor”.

For the compound `CSCC[C@H](NC(=O)[C@H](Cc1ccccc1)NC(=O)[C@H](Cc1ccc(O)cc1)NC(=O)CNC(=O)CNC(=O)[C@H](CCCCN)NC(=O)[C@H](CCCNC(=N)N)NC(=O)[C@@H](CCCNC(=N)N)NC(=O)[C@H](CCCNC(=N)N)NC(=O)CCCCCN)C(=O)N[C@H](C(=O)N[C@@H](Cc1ccccc1)C(=O)NCC(=O)NCC(=O)N[C@@H](Cc1ccccc1)C(=O)N[C@@H](Cc1c[nH]c2ccccc12)C(=O)N[C@@H](CC(C)C)C(=O)N[C@@H](Cc1ccc(O)cc1)C(=O)O)C(C)C` [P6, -Ahx-RrRKGGYFMVFGGFWLY (SEQ ID NO:6)] (H-[Ahx]R[dR]RKGGYFMVFGGFWLY-OH; C-terminus assumed), the “Cytotoxicity of free peptides” value in the data set with EBV-positive C666 cells [4] was “capable of selectively targeting and killing EBV-infected cells”.

Take `CSCC[C@H](NC(=O)[C@H](Cc1ccccc1)NC(=O)[C@H](Cc1ccc(O)cc1)NC(=O)CNC(=O)CNC(=O)[C@H](CCCCN)NC(=O)[C@H](CCCNC(=N)N)NC(=O)[C@@H](CCCNC(=N)N)NC(=O)[C@H](CCCNC(=N)N)NC(=O)CNC(=O)CNC(=O)[C@H](Cc1ccc(O)cc1)NC(=O)[C@H](CC(C)C)NC(=O)[C@H](Cc1c[nH]c2ccccc12)NC(=O)[C@H](Cc1ccccc1)NC(=O)CCCCCN)C(=O)N[C@H](C(=O)N[C@@H](Cc1ccccc1)C(=O)O)C(C)C` [P7, -Ahx-FWLYGGRrRKGGYFMVF (SEQ ID NO:7)] (H-[Ahx]FWLYGGR[dR]RKGGYFMVF-OH): the “Cytotoxicity of free peptides” value in the data set with EBV-positive C666 cells [4] is “capable of selectively targeting and killing EBV-infected cells”.
